Source: article PMC3521585 (Journal of medicinal chemistry, 2009)
Non-standard residues stand in square brackets, D forms with d. No end group written: not given here. *: point of attachment. NH(3,5-(CF3)2-benzyl) = FC(F)(F)c1cc(CN*)cc(C(F)(F)F)c1; βGlc = OC[C@H]1O[C@@H](*)[C@H](O)[C@@H](O)[C@@H]1O; Nle = CCCC[C@H](N)C(=O)O

Columns and labels:
human δ-opioid receptor [1] = target: T1, human δ-opioid receptor (human, UniProt P41143 1-372); test: cell-based or functional assay
rat μ-opioid receptor [2] = target: T2, rat μ-opioid receptor (rat, UniProt P33535 1-398); test: cell-based or functional assay
T2 sequence (P33535 whole entry): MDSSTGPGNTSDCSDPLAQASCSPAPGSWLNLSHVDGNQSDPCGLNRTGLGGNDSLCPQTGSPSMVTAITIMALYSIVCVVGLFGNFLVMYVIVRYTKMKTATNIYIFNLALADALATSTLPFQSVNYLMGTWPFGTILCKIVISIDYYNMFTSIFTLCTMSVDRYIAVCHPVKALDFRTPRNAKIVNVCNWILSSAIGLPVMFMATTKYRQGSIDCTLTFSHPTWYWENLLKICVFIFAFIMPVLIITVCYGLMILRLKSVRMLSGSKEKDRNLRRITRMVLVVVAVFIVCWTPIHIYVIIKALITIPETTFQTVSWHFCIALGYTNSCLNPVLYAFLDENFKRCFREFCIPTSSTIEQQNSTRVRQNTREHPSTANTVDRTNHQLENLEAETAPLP

rat μ-opioid receptor [3] = target: T2, rat μ-opioid receptor; test: radioligand binding
human NK1 receptor = human NK1 receptor (human, UniProt P25103 1-407); test: radioligand binding
human NK1 receptor, sequence (P25103 whole entry): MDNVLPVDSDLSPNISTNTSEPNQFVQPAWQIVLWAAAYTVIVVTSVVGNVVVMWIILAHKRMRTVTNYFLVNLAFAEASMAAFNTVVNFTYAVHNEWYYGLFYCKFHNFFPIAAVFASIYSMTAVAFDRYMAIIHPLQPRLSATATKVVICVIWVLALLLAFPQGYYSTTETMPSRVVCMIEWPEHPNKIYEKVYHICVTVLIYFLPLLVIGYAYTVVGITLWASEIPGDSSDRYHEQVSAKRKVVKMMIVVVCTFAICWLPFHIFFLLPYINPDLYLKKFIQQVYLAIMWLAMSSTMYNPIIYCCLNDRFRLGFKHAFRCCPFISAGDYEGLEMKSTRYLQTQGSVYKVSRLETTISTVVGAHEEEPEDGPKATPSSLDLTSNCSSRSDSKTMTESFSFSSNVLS

human δ-opioid receptor [4] = target: T1, human δ-opioid receptor; test: radioligand binding
rat NK1 receptor = rat NK1 receptor (rat, UniProt P14600 1-407); test: radioligand binding
rat NK1 receptor, sequence (P14600 whole entry): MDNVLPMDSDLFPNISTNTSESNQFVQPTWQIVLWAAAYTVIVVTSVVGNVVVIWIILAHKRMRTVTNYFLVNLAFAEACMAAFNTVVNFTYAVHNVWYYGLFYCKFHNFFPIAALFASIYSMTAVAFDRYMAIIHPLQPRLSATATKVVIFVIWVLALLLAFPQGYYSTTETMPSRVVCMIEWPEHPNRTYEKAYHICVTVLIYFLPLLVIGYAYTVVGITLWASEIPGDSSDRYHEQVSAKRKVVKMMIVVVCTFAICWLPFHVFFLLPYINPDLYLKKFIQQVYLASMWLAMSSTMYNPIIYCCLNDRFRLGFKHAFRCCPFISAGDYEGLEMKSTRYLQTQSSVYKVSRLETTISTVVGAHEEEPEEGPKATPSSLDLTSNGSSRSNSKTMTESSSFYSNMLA

T1 sequence (P41143 whole entry, stated change not applied): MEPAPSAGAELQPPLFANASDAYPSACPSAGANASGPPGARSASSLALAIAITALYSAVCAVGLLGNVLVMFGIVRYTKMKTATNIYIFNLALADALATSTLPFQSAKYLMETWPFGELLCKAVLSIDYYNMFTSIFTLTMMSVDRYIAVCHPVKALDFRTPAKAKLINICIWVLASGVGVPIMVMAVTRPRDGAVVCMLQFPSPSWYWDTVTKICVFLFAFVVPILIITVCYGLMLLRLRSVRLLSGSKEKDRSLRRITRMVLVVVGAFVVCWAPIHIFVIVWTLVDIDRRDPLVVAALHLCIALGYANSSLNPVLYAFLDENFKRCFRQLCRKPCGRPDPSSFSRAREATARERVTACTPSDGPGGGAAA

Binder | [35S]GTPγS binding, HN9.10 membranes expressing hDOR: Emax (human δ-opioid receptor [1]) [%] | [35S]GTPγS binding, HN9.10 membranes expressing rMOR: EC50 (rat μ-opioid receptor [2]) [nM] | [35S]GTPγS binding, HN9.10 membranes expressing rMOR: Emax (rat μ-opioid receptor [2]) [%] | [35S]GTPγS binding, HN9.10 membranes expressing rMOR: LogEC50 (rat μ-opioid receptor [2]) | Ki (rat μ-opioid receptor [3]) [nM] | LogIC50 (rat μ-opioid receptor [3]) | Ki (human NK1 receptor) [nM] | LogIC50 (human NK1 receptor) | [35S]GTPγS binding, HN9.10 membranes expressing hDOR: EC50 (human δ-opioid receptor [1]) [nM] | [35S]GTPγS binding, HN9.10 membranes expressing hDOR: LogEC50 (human δ-opioid receptor [1]) | Ki (human δ-opioid receptor [4]) [nM] | LogIC50 (human δ-opioid receptor [4]) | Ki (rat NK1 receptor) [nM] | LogIC50 (rat NK1 receptor)
Y[dA]GF[Nle]S(βGlc)LW-{NH(3,5-(CF3)2-benzyl)} [Tyr-D-Ala-Gly-Phe-Nle-Ser(Glc)-Leu-Trp-NH-3’,5’-Bzl(CF3)2] | 130 | 380 | 81 | -6.42 | 3400 | -5.15 | 1.8 | -8.38 |  |  |  |  |  | 
YAGFXPLW (D-Ala at 2; norleucine (Nle) at 5 (written X); C-terminal 3’,5’-bis(trifluoromethyl)benzyl amide (Trp-NH-3’,5’-Bzl(CF3)2)) [Tyr-D-Ala-Gly-Phe-Nle-Pro-Leu-Trp-NH-3’,5’-Bzl(CF3)2] | 120 |  |  |  |  |  | 0.0028 | -11.6 | 5 | -8.3 | 1 | -8.67 |  | 
Y[dA]GF[Nle]PS(βGlc)W-{NH(3,5-(CF3)2-benzyl)} [Tyr-D-Ala-Gly-Phe-Nle-Pro-Ser(Glc)-Trp-NH-3’,5’-Bzl(CF3)2] | 64 | 18 | 38 | -7.75 | 8 | -7.77 |  |  | 7.9 | -8.1 |  | -8.1 | 14 | -7.3
Y[dA]GF[Nle]PLS(βGlc)W-{NH(3,5-(CF3)2-benzyl)} [Tyr-D-Ala-Gly-Phe-Nle-Pro-Leu-Ser(Glc)-Trp-NH-3’,5’-Bzl(CF3)2] | 49 |  | 50 | -8.21 |  | -7.22 |  | -9.93 |  | -7.56 |  |  |  | -7.02
Y[dA]GFS(βGlc)PLW-{NH(3,5-(CF3)2-benzyl)} [Tyr-D-Ala-Gly-Phe-Ser(Glc)-Pro-Leu-Trp-NH-3’,5’-Bzl(CF3)2] |  | 180 |  | -6.76 | 260 | -6.12 | 0.0011 | -12.2 | 52 | -7.29 | 59 | -6.91 | 1.5 | -8.35
